Assay results: IntAct's records for PubMed 21262861

Molecular target: sox6_human SOX6 (UniProt P35712)
Sequence (P35712 whole entry): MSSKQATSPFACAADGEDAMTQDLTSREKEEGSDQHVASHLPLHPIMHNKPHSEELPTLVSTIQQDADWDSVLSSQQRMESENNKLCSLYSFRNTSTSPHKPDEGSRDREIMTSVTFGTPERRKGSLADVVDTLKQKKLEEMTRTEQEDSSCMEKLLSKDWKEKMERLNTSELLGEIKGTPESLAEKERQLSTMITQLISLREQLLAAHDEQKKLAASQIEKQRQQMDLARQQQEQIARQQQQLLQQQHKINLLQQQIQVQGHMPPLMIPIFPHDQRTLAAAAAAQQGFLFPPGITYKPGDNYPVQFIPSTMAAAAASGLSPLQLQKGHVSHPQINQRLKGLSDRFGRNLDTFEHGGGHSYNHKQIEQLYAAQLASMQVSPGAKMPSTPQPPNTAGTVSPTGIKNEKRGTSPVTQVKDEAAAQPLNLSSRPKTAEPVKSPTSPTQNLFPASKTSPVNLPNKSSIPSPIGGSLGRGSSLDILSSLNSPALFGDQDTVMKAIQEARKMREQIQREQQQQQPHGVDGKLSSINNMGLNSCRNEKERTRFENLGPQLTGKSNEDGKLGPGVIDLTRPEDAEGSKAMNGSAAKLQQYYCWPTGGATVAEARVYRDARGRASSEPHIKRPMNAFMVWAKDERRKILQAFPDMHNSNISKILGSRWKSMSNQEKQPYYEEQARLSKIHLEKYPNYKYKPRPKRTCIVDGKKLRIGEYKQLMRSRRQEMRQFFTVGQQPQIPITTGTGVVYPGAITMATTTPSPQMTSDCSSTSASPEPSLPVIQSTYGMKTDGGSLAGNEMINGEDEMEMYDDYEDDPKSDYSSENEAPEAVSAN

Chain of Short stature homeobox protein (Homo sapiens), O15266 L132V (O15266 whole entry L132V): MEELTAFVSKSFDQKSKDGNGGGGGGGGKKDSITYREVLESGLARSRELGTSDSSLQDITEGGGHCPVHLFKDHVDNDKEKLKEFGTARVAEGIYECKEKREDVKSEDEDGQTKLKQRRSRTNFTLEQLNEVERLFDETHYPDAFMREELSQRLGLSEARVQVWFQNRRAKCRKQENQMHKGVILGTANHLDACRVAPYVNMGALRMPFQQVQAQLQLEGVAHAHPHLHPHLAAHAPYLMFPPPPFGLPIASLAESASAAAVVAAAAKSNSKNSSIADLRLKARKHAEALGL
Chain of Short stature homeobox protein (Homo sapiens), O15266 A233E (O15266 whole entry A233E): as the sequence (O15266 whole entry L132V) above, with V132L, A233E counted along it
Chain of Short stature homeobox protein (Homo sapiens), O15266 K116E (O15266 whole entry K116E): as the sequence (O15266 whole entry L132V) above, with K116E, V132L counted along it
Chain of Short stature homeobox protein (Homo sapiens), O15266 R195P (O15266 whole entry R195P): as the sequence (O15266 whole entry L132V) above, with V132L, R195P counted along it
Chain of Short stature homeobox protein (Homo sapiens), O15266 A170P (O15266 whole entry A170P): as the sequence (O15266 whole entry L132V) above, with V132L, A170P counted along it
Chain of Short stature homeobox protein (Homo sapiens), O15266 R168Y (O15266 whole entry R168Y): as the sequence (O15266 whole entry L132V) above, with V132L, R168Y counted along it
Chain of Short stature homeobox protein (Homo sapiens), O15266 D278A (O15266 whole entry D278A): as the sequence (O15266 whole entry L132V) above, with V132L, D278A counted along it
Chain of Short stature homeobox protein (Homo sapiens), O15266 R173C (O15266 whole entry R173C): as the sequence (O15266 whole entry L132V) above, with V132L, R173C counted along it

effect of a mutation on the interaction | Substance
decreasing interaction | Short stature homeobox protein (Homo sapiens), O15266 K116E
disrupting interaction | Short stature homeobox protein (Homo sapiens), O15266 L132V
decreasing interaction | Short stature homeobox protein (Homo sapiens), O15266 R173C

More lines, now with the values behind:

Substance | effect of a mutation on the interaction
Short stature homeobox protein (Homo sapiens), O15266 A170P | disrupting interaction
Short stature homeobox protein (Homo sapiens), O15266 A233E | decreasing interaction
Short stature homeobox protein (Homo sapiens), O15266 D278A | decreasing interaction
Short stature homeobox protein (Homo sapiens), O15266 R168Y | decreasing interaction
Short stature homeobox protein (Homo sapiens), O15266 R195P | decreasing interaction
